Changes are numbered by the printed parent chain. Blank lines part the entries; values can stand above or below the binder they belong to. Bridge positions count the residues as written; N and C are the ends. Ends that are not written are not given here.
Columns and labels:
Assay in all cases: cell-based or functional assay
[1] = molecular target: human CRF1 receptor (human) (UniProt P34998)
[2] = molecular target: T1, human CRF2α receptor (human) (UniProt Q13324)
T1 sequence: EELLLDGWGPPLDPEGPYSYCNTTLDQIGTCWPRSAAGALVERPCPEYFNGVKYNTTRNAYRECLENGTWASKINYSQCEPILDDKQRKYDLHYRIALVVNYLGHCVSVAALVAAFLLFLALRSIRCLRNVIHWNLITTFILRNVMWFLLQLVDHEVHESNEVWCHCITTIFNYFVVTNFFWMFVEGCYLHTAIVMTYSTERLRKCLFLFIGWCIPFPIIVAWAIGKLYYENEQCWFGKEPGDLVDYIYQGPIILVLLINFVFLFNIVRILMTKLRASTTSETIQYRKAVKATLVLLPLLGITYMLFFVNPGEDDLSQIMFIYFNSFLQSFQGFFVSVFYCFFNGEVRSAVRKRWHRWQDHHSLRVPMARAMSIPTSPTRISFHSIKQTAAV

rat CRF2β receptor (rat) = molecular target: rat CRF2β receptor (rat)

Sequence of human CRF1 receptor (human) (P34998 24-415): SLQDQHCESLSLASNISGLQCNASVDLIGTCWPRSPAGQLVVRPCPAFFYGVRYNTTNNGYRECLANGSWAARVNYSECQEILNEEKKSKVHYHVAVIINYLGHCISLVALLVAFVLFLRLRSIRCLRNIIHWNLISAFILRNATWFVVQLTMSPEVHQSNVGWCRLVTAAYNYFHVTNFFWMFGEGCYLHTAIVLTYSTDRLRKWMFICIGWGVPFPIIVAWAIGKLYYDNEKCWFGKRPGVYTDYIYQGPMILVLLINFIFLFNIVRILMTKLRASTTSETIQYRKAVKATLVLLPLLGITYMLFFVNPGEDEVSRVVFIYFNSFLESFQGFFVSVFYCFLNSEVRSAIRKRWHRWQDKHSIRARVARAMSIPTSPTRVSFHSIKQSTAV

EC50 of adenylate cyclase stimulation (cAMP) [1]: 1000 nM
EC50 of adenylate cyclase stimulation (cAMP) [2]: > 1000 nM
B1: deamidated bovine CRF (peptide, UniProt Q95MI6 148-188, looked up)
peptide: SQEPPISLDLTFHLLREVLEMTKADQLAQQAHNNRKLLDIA-OH

EC50 of adenylate cyclase stimulation (cAMP) (rat CRF2β receptor (rat)): 0.4 nM
EC50 of adenylate cyclase stimulation (cAMP) [1]: 3 nM
EC50 of adenylate cyclase stimulation (cAMP) [2]: 0.5 nM
B2: Sauvagine (peptide, UniProt P01144 1-40, looked up)
peptide: QGPPISIDLSLELLRKMIEIEKQEKEKQQAANNRLLLDTI

EC50 of adenylate cyclase stimulation (cAMP) (rat CRF2β receptor (rat)): 1 nM
EC50 of adenylate cyclase stimulation (cAMP) [1]: 4 nM
EC50 of adenylate cyclase stimulation (cAMP) [2]: 20 nM
B3: rat/human CRF (peptide, UniProt P06850 154-194, looked up)
peptide: SEEPPISLDLTFHLLREVLEMARAEQLAQQAHSNRKLMEII

EC50 of adenylate cyclase stimulation (cAMP) [1]: > 1000 nM
EC50 of adenylate cyclase stimulation (cAMP) [2]: > 1000 nM
B4: AVP (peptide, UniProt P01185 20-28, looked up, species assumed)
Arg-vasopressin: CYFQNCPRG-NH2
modifications: disulfide 1-6; ends not checked

EC50 of adenylate cyclase stimulation (cAMP) [1]: > 1000 nM
EC50 of adenylate cyclase stimulation (cAMP) [2]: > 1000 nM
B5: d-Phe r/hCRF(12-41) (peptide, UniProt P06850 165-194, looked up)
peptide: FHLLREVLEMARAEQLAQQAHSNRKLMEII
modifications: d-Phe (position not given)

EC50 of adenylate cyclase stimulation (cAMP) [1]: > 1000 nM
EC50 of adenylate cyclase stimulation (cAMP) [2]: > 1000 nM
B6: VIP (peptide, UniProt P01282 125-152, looked up, species assumed)
Vasoactive intestinal peptide: HSDAVFTDNYTRLRKQMAVKKYLNSILN
modifications: ends and bridges not checked

EC50 of adenylate cyclase stimulation (cAMP) [1]: > 1000 nM
EC50 of adenylate cyclase stimulation (cAMP) [2]: > 1000 nM
B7: hGRF (peptide, UniProt P01286 32-75, looked up)
peptide: YADAIFTNSYRKVLGQLSARKLLQDIMSRQQGESNQERGARARL
modifications: ends and bridges not checked

EC50 of adenylate cyclase stimulation (cAMP) [1]: 10 nM
EC50 of adenylate cyclase stimulation (cAMP) [2]: 80 nM
B8: ovine CRF (peptide, UniProt P01142 148-188, looked up)
Corticoliberin: SQEPPISLDLTFHLLREVLEMTKADQLAQQAHSNRKLLDIA
modifications: ends and bridges not checked

EC50 of adenylate cyclase stimulation (cAMP) [1]: 30 nM
EC50 of adenylate cyclase stimulation (cAMP) [2]: 100 nM
B9: bovine CRF (peptide, UniProt Q95MI6 148-188, looked up)
peptide: B8 Corticoliberin with S33N

EC50 of adenylate cyclase stimulation (cAMP) [1]: > 1000 nM
EC50 of adenylate cyclase stimulation (cAMP) [2]: > 1000 nM
B10: r/hCRF(6-33) (peptide, UniProt P06850 159-186, looked up)
peptide: ISLDLTFHLLREVLEMARAEQLAQQAHS
